From patent US20220010021A1 (Sanofi, published 2022)

Assays:
human beta-Klotho (KLB) = target: T1, human beta-Klotho (KLB) (human, UniProt Q86Z14 53-997); experiment: BLI off-rate screening (Octet), crude supernatant;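 note: supernatants tested at 25 µg/mL, dissociation from biosensors recorded in D-PBS with 0.1% BSA over 1800 s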
T1 construct: Bought protein; also called human KLB; β-Klotho
T1 sequence (looked up): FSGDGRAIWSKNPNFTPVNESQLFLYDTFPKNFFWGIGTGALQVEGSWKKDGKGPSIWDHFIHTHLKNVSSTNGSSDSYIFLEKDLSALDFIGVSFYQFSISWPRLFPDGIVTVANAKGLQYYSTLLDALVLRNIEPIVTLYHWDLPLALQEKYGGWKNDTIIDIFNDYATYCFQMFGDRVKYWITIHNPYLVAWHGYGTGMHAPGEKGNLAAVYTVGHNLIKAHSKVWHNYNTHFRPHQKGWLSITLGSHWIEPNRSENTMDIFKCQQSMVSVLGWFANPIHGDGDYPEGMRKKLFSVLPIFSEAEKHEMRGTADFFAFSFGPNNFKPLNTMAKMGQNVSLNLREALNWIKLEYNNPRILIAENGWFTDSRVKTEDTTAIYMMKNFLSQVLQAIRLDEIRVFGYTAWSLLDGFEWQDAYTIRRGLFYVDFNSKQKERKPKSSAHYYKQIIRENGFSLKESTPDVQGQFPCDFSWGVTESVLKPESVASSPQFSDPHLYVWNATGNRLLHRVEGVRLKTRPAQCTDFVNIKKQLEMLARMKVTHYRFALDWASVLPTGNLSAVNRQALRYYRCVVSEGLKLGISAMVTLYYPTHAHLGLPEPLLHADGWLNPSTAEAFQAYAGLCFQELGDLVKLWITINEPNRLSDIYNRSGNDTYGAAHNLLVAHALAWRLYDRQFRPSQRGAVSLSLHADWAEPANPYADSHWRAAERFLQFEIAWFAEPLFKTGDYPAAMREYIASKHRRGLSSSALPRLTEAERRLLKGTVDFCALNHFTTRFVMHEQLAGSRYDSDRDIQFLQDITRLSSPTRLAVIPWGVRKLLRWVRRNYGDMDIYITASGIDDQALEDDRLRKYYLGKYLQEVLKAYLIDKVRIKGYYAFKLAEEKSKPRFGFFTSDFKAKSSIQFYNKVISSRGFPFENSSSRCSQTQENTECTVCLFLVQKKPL

[1] = target: cell surface receptor composed of FGFR1c and co-receptor beta-Klotho (KLB) (human, UniProt P11362 22-822; Q86Z14 1-1044); experiment: cell-based or functional assay; for Mean E max, Luciferase reporter gene assay: reference of the scale not given here
Sequence of cell surface receptor composed of FGFR1c and co-receptor beta-Klotho (KLB) (P11362 22-822, chain 1 of 2): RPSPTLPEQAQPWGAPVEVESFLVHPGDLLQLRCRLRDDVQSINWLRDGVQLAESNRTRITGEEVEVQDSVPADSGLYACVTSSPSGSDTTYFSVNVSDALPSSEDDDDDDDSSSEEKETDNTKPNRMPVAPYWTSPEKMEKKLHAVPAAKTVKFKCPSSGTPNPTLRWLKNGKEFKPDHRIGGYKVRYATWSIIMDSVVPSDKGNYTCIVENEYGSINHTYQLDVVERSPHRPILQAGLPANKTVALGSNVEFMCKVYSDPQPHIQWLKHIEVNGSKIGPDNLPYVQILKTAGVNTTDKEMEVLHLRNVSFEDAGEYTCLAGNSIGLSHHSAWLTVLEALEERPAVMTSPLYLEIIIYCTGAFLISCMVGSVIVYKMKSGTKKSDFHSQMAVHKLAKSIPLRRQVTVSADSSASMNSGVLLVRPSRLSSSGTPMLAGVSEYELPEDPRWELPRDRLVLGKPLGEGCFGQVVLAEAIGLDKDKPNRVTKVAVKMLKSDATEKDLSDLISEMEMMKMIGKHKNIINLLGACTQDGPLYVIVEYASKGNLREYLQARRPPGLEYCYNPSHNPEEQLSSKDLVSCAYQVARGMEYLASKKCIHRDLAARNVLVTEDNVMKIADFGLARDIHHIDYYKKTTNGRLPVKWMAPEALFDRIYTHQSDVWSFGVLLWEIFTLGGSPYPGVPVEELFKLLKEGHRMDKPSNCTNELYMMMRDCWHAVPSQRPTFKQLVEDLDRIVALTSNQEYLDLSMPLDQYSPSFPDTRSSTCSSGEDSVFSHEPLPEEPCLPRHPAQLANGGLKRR
Sequence of cell surface receptor composed of FGFR1c and co-receptor beta-Klotho (KLB) (Q86Z14 whole entry, chain 2 of 2): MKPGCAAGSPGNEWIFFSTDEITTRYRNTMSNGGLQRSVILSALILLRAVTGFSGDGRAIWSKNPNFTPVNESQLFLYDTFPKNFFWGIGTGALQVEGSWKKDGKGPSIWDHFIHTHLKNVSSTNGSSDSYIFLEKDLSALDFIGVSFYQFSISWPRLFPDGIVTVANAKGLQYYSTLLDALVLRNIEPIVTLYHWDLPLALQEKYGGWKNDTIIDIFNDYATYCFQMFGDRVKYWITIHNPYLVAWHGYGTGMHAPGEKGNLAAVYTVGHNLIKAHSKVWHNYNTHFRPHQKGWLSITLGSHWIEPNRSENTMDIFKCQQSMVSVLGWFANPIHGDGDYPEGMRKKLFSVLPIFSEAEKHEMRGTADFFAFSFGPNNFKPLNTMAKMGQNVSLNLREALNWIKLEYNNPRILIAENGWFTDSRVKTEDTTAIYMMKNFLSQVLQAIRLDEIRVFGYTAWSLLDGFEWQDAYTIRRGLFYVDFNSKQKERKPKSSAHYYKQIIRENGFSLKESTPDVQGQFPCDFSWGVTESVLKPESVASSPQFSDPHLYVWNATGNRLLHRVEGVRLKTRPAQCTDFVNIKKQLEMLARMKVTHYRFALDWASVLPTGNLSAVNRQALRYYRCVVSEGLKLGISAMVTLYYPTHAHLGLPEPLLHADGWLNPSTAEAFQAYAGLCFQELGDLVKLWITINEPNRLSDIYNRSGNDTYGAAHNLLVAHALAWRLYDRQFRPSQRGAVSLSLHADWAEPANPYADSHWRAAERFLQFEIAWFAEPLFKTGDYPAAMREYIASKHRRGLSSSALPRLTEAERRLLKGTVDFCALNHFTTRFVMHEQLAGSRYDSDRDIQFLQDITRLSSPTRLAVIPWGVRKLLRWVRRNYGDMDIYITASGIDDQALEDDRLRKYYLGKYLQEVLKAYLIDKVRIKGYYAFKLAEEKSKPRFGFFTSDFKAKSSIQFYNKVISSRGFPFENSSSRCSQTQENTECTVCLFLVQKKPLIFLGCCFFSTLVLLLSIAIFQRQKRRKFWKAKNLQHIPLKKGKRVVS

B1: 16H7 light chain variant H33M (antibody, IgG4, V domains shown)
VH: not shown
VL: SYVLTQPPSVSVAPGQTARITCGGNNIGSESVMWYQQKPGQAPVLVVYDDSDRPSGIPERFSGSNSGNTATLTISRVEAGDEADYYCQVWDGNSDHVVFGGGTKLTVLG
notes: IgG4 backbone
- koff (human beta-Klotho (KLB)): 5.2e-05 s⁻¹
- Mean E max, Luciferase reporter gene assay [1]: 102%
- Mean EC50, Luciferase reporter gene assay [1]: 0.107 nM

B2: 16H7 light chain variant H33N (antibody, IgG4, V domains shown)
VH: not shown
VL: SYVLTQPPSVSVAPGQTARITCGGNNIGSESVNWYQQKPGQAPVLVVYDDSDRPSGIPERFSGSNSGNTATLTISRVEAGDEADYYCQVWDGNSDHVVFGGGTKLTVLG
notes: IgG4 backbone
- koff (human beta-Klotho (KLB)): 0.00011 s⁻¹
- Mean E max, Luciferase reporter gene assay [1]: 113%
- Mean EC50, Luciferase reporter gene assay [1]: 0.165 nM

B3: 16H7 light chain variant H33Q (antibody, IgG4, V domains shown)
VH: not shown
VL: SYVLTQPPSVSVAPGQTARITCGGNNIGSESVQWYQQKPGQAPVLVVYDDSDRPSGIPERFSGSNSGNTATLTISRVEAGDEADYYCQVWDGNSDHVVFGGGTKLTVLG
notes: IgG4 backbone
- koff (human beta-Klotho (KLB)): 4.4e-05 s⁻¹
- Mean E max, Luciferase reporter gene assay [1]: 101%
- Mean EC50, Luciferase reporter gene assay [1]: 0.131 nM

B4: 16H7 light chain variant H33S (antibody, IgG4, V domains shown)
VH: not shown
VL: SYVLTQPPSVSVAPGQTARITCGGNNIGSESVSWYQQKPGQAPVLVVYDDSDRPSGIPERFSGSNSGNTATLTISRVEAGDEADYYCQVWDGNSDHVVFGGGTKLTVLG
notes: IgG4 backbone
- koff (human beta-Klotho (KLB)): 4.6e-06 s⁻¹
- Mean E max, Luciferase reporter gene assay [1]: 103%

B5: 16H7 light chain variant H33T (antibody, IgG4, V domains shown)
VH: not shown
VL: SYVLTQPPSVSVAPGQTARITCGGNNIGSESVTWYQQKPGQAPVLVVYDDSDRPSGIPERFSGSNSGNTATLTISRVEAGDEADYYCQVWDGNSDHVVFGGGTKLTVLG
notes: IgG4 backbone
- koff (human beta-Klotho (KLB)): 0.00014 s⁻¹
- Mean E max, Luciferase reporter gene assay [1]: 99%
- Mean EC50, Luciferase reporter gene assay [1]: 0.114 nM

B6: 16H7 light chain variant H33V (antibody, IgG4, V domains shown)
VH: not shown
VL: SYVLTQPPSVSVAPGQTARITCGGNNIGSESVVWYQQKPGQAPVLVVYDDSDRPSGIPERFSGSNSGNTATLTISRVEAGDEADYYCQVWDGNSDHVVFGGGTKLTVLG
notes: IgG4 backbone
- koff (human beta-Klotho (KLB)): 0.00018 s⁻¹
- Mean E max, Luciferase reporter gene assay [1]: 104%
- Mean EC50, Luciferase reporter gene assay [1]: 0.147 nM

B7: 16H7 light chain variant H33Y (antibody, IgG4, V domains shown)
VH: not shown
VL: SYVLTQPPSVSVAPGQTARITCGGNNIGSESVYWYQQKPGQAPVLVVYDDSDRPSGIPERFSGSNSGNTATLTISRVEAGDEADYYCQVWDGNSDHVVFGGGTKLTVLG
notes: IgG4 backbone
- koff (human beta-Klotho (KLB)): 7.5e-05 s⁻¹
- Mean E max, Luciferase reporter gene assay [1]: 98%
- Mean EC50, Luciferase reporter gene assay [1]: 0.12 nM

B8: 16H7 light chain variant H96D (antibody, IgG4, V domains shown)
VH: not shown
VL: SYVLTQPPSVSVAPGQTARITCGGNNIGSESVHWYQQKPGQAPVLVVYDDSDRPSGIPERFSGSNSGNTATLTISRVEAGDEADYYCQVWDGNSDDVVFGGGTKLTVLG
notes: IgG4 backbone
- koff (human beta-Klotho (KLB)): 2.2e-05 s⁻¹
- Mean E max, Luciferase reporter gene assay [1]: 100%
- Mean EC50, Luciferase reporter gene assay [1]: 0.111 nM

B9: 16H7 light chain variant H96E (antibody, IgG4, V domains shown)
VH: not shown
VL: SYVLTQPPSVSVAPGQTARITCGGNNIGSESVHWYQQKPGQAPVLVVYDDSDRPSGIPERFSGSNSGNTATLTISRVEAGDEADYYCQVWDGNSDEVVFGGGTKLTVLG
notes: IgG4 backbone
- koff (human beta-Klotho (KLB)): 1.1e-05 s⁻¹
- Mean E max, Luciferase reporter gene assay [1]: 100%
- Mean EC50, Luciferase reporter gene assay [1]: 0.122 nM

B10: 16H7 light chain variant H96G (antibody, IgG4, V domains shown)
VH: not shown
VL: SYVLTQPPSVSVAPGQTARITCGGNNIGSESVHWYQQKPGQAPVLVVYDDSDRPSGIPERFSGSNSGNTATLTISRVEAGDEADYYCQVWDGNSDGVVFGGGTKLTVLG
notes: IgG4 backbone
- koff (human beta-Klotho (KLB)): 0.00015 s⁻¹
- Mean E max, Luciferase reporter gene assay [1]: 95%
- Mean EC50, Luciferase reporter gene assay [1]: 0.13 nM

B11: 16H7 light chain variant H96K (antibody, IgG4, V domains shown)
VH: not shown
VL: SYVLTQPPSVSVAPGQTARITCGGNNIGSESVHWYQQKPGQAPVLVVYDDSDRPSGIPERFSGSNSGNTATLTISRVEAGDEADYYCQVWDGNSDKVVFGGGTKLTVLG
notes: IgG4 backbone
- koff (human beta-Klotho (KLB)): 6.4e-05 s⁻¹
- Mean E max, Luciferase reporter gene assay [1]: 98%
- Mean EC50, Luciferase reporter gene assay [1]: 0.179 nM

B12: 16H7 light chain variant H96L (antibody, IgG4, V domains shown)
VH: not shown
VL: SYVLTQPPSVSVAPGQTARITCGGNNIGSESVHWYQQKPGQAPVLVVYDDSDRPSGIPERFSGSNSGNTATLTISRVEAGDEADYYCQVWDGNSDLVVFGGGTKLTVLG
notes: IgG4 backbone
- koff (human beta-Klotho (KLB)): 0.00013 s⁻¹
- Mean E max, Luciferase reporter gene assay [1]: 98%
- Mean EC50, Luciferase reporter gene assay [1]: 0.176 nM

B13: 16H7 light chain variant H96N (antibody, IgG4, V domains shown)
VH: not shown
VL: SYVLTQPPSVSVAPGQTARITCGGNNIGSESVHWYQQKPGQAPVLVVYDDSDRPSGIPERFSGSNSGNTATLTISRVEAGDEADYYCQVWDGNSDNVVFGGGTKLTVLG
notes: IgG4 backbone
- koff (human beta-Klotho (KLB)): 4.4e-05 s⁻¹
- Mean E max, Luciferase reporter gene assay [1]: 112%
- Mean EC50, Luciferase reporter gene assay [1]: 0.143 nM

B14: 16H7 light chain variant H96Q (antibody, IgG4, V domains shown)
VH: not shown
VL: SYVLTQPPSVSVAPGQTARITCGGNNIGSESVHWYQQKPGQAPVLVVYDDSDRPSGIPERFSGSNSGNTATLTISRVEAGDEADYYCQVWDGNSDQVVFGGGTKLTVLG
notes: IgG4 backbone
- koff (human beta-Klotho (KLB)): 5e-05 s⁻¹
- Mean E max, Luciferase reporter gene assay [1]: 104%
- Mean EC50, Luciferase reporter gene assay [1]: 0.106 nM

B15: 16H7 light chain variant H96R (antibody, IgG4, V domains shown)
VH: not shown
VL: SYVLTQPPSVSVAPGQTARITCGGNNIGSESVHWYQQKPGQAPVLVVYDDSDRPSGIPERFSGSNSGNTATLTISRVEAGDEADYYCQVWDGNSDRVVFGGGTKLTVLG
notes: IgG4 backbone
- koff (human beta-Klotho (KLB)): 0.00014 s⁻¹
- Mean E max, Luciferase reporter gene assay [1]: 102%
- Mean EC50, Luciferase reporter gene assay [1]: 0.095 nM

B16: 16H7 light chain variant H96S (antibody, IgG4, V domains shown)
VH: not shown
VL: SYVLTQPPSVSVAPGQTARITCGGNNIGSESVHWYQQKPGQAPVLVVYDDSDRPSGIPERFSGSNSGNTATLTISRVEAGDEADYYCQVWDGNSDSVVFGGGTKLTVLG
notes: IgG4 backbone
- koff (human beta-Klotho (KLB)): 3e-05 s⁻¹
- Mean E max, Luciferase reporter gene assay [1]: 102%
- Mean EC50, Luciferase reporter gene assay [1]: 0.097 nM

B17: 16H7 light chain variant H96T (antibody, IgG4, V domains shown)
VH: not shown
VL: SYVLTQPPSVSVAPGQTARITCGGNNIGSESVHWYQQKPGQAPVLVVYDDSDRPSGIPERFSGSNSGNTATLTISRVEAGDEADYYCQVWDGNSDTVVFGGGTKLTVLG
notes: IgG4 backbone
- koff (human beta-Klotho (KLB)): 1.8e-05 s⁻¹
- Mean E max, Luciferase reporter gene assay [1]: 110%
- Mean EC50, Luciferase reporter gene assay [1]: 0.11 nM

B18: 16H7 light chain variant H96V (antibody, IgG4, V domains shown)
VH: not shown
VL: SYVLTQPPSVSVAPGQTARITCGGNNIGSESVHWYQQKPGQAPVLVVYDDSDRPSGIPERFSGSNSGNTATLTISRVEAGDEADYYCQVWDGNSDVVVFGGGTKLTVLG
notes: IgG4 backbone
- koff (human beta-Klotho (KLB)): 4.1e-05 s⁻¹
- Mean E max, Luciferase reporter gene assay [1]: 91%
- Mean EC50, Luciferase reporter gene assay [1]: 0.13 nM

B19: 16H7 light chain variant H96W (antibody, IgG4, V domains shown)
VH: not shown
VL: SYVLTQPPSVSVAPGQTARITCGGNNIGSESVHWYQQKPGQAPVLVVYDDSDRPSGIPERFSGSNSGNTATLTISRVEAGDEADYYCQVWDGNSDWVVFGGGTKLTVLG
notes: IgG4 backbone
- koff (human beta-Klotho (KLB)): 0.00012 s⁻¹
- Mean E max, Luciferase reporter gene assay [1]: 103%
- Mean EC50, Luciferase reporter gene assay [1]: 0.155 nM

B20: 16H7 light chain variant H96Y (antibody, IgG4, V domains shown)
VH: not shown
VL: SYVLTQPPSVSVAPGQTARITCGGNNIGSESVHWYQQKPGQAPVLVVYDDSDRPSGIPERFSGSNSGNTATLTISRVEAGDEADYYCQVWDGNSDYVVFGGGTKLTVLG
notes: IgG4 backbone
- koff (human beta-Klotho (KLB)): 6.9e-05 s⁻¹
- Mean E max, Luciferase reporter gene assay [1]: 103%
- Mean EC50, Luciferase reporter gene assay [1]: 0.134 nM

B21: 16H7 light chain variant N93A (antibody, IgG4, V domains shown)
VH: not shown
VL: SYVLTQPPSVSVAPGQTARITCGGNNIGSESVHWYQQKPGQAPVLVVYDDSDRPSGIPERFSGSNSGNTATLTISRVEAGDEADYYCQVWDGASDHVVFGGGTKLTVLG
notes: IgG4 backbone
- koff (human beta-Klotho (KLB)): 7.5e-06 s⁻¹
- Mean E max, Luciferase reporter gene assay [1]: 101%
- Mean EC50, Luciferase reporter gene assay [1]: 0.108 nM

B22: 16H7 light chain variant N93C (antibody, IgG4, V domains shown)
VH: not shown
VL: SYVLTQPPSVSVAPGQTARITCGGNNIGSESVHWYQQKPGQAPVLVVYDDSDRPSGIPERFSGSNSGNTATLTISRVEAGDEADYYCQVWDGCSDHVVFGGGTKLTVLG
notes: IgG4 backbone
- koff (human beta-Klotho (KLB)): 5.8e-05 s⁻¹
- Mean E max, Luciferase reporter gene assay [1]: 107%
- Mean EC50, Luciferase reporter gene assay [1]: 0.148 nM

B23: 16H7 light chain variant N93D (antibody, IgG4, V domains shown)
VH: not shown
VL: SYVLTQPPSVSVAPGQTARITCGGNNIGSESVHWYQQKPGQAPVLVVYDDSDRPSGIPERFSGSNSGNTATLTISRVEAGDEADYYCQVWDGDSDHVVFGGGTKLTVLG
notes: IgG4 backbone
- koff (human beta-Klotho (KLB)): 3.8e-05 s⁻¹
- Mean E max, Luciferase reporter gene assay [1]: 108%
- Mean EC50, Luciferase reporter gene assay [1]: 0.123 nM

B24: 16H7 light chain variant N93F (antibody, IgG4, V domains shown)
VH: not shown
VL: SYVLTQPPSVSVAPGQTARITCGGNNIGSESVHWYQQKPGQAPVLVVYDDSDRPSGIPERFSGSNSGNTATLTISRVEAGDEADYYCQVWDGFSDHVVFGGGTKLTVLG
notes: IgG4 backbone
- koff (human beta-Klotho (KLB)): 2.2e-06 s⁻¹
- Mean E max, Luciferase reporter gene assay [1]: 100%
- Mean EC50, Luciferase reporter gene assay [1]: 0.165 nM
